{
  "source": "patent US20110117086A1",
  "about": "(LES LABORATOIRES SERVIER, published 2011)",
  "key": {"[1]": {"biological_target": "T1, Recombinant human progastrin (human, UniProt P01350 22-101)", "T1 sequence": "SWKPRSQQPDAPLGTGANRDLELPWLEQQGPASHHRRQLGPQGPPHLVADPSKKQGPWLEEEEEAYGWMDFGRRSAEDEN", "assay": "cell-based or functional assay"}, "[2]": {"biological_target": "T1, Recombinant human progastrin", "assay": "cell-based or functional assay", "remark": "listed apart in the source"}, "[3]": {"biological_target": "T1, Recombinant human progastrin", "assay": "cell-based or functional assay", "remark": "listed apart in the source"}, "[4]": {"biological_target": "T1, Recombinant human progastrin", "assay": "SPR (Proteon), MAb captured on anti-mouse IgG, hPG injected", "description": "To provide a more absolute quantification of affinity for the monoclonal antibodies, affinity constants were measured using the Proteon Technique (BioRad), according to Nahshol et al., 2008, Analytical Biochemistry 383:52-60, hereby incorporated by reference in its entirety. Briefly, an anti-mouse IgG antibody (50 μg/ml) was first coated on a sensor chip, making sure that the signal detected by the chip after injection of the antibody falls between 10,000 and 11,500 RU (response units). The murine monoclonal antibody to be tested was then injected (typical concentrations: 30 μg/ml). Sufficient binding of the antibody to be tested was determined based on a further signal of at least 500 RU on the sensor chip. A time-course of interaction between monoclonal anti-progastrin antibodies and progastrin was then measured by injecting varying concentrations of progastrin, for example 200, 100, 50, 25, and 12.5 nM, and the level of association detected. Typically, several channels are available to test multiple antibodies in parallel in a single experiment, making it possible to assay binding of test antibodies at varying concentrations of PG in parallel. Typically, one channel is reserved for a murine monoclonal antibody that is not specific to PG, as a control for non-specific binding, and another channel is injected with dilution buffer alone as a baseline for the background signal. Generally, no binding is detectable in the channels injected with non-specific murine antibody. Antibodies displaying a high level of association in this setting, which may result in saturation of the trapped monoclonal antibody by progastrin, can be tested against lower progastrin concentrations (50, 25, 12.5, 6.25 and 3.125 nM), allowing for a more refined measurement.\nAffinity constants (KD) were calculated as the ratio between the dissociation constant (kd) and the association constant (ka). Experimental values were validated by analyzing the statistically relevant similarity between experimental curves based on binding measurements and theoretical profiles. The mathematical model used in the Proteon experiments to select whether experimental curves fit with the theoretical model was the Langmuir model, based on a 1:1 interaction between progastrin molecules and anti-progastrin monoclonal antibodies."}, "[5]": {"biological_target": "T1, Recombinant human progastrin", "assay": "ELISA on 50 ng coated hPG, antibody titrated, OD 492 nm, n=2", "description": "After blocking, the wells were washed three times and the primary antibody—the antibody to be assayed—added. For initial screening of fused splenocytes, 50 μL of culture supernatant from each culture to be assayed was added to each well in the plate. In assays performed on monoclonal antibodies, 100 μL of the test antibody in PBS and 0.1% Tween-20 was added to each well. Plates were then incubated for 2 hours at 22° C., after which the primary antibody solution was discarded and replaced, after a wash step (3×100 μL wash solution, as noted above), with blocking solution containing the secondary antibody, which binds the primary antibody and is coupled to an enzyme. The secondary antibody was a goat anti-mouse IgG (Fc) antibody coupled to horseradish peroxidase. […] The reaction was then stopped by adding 50 μL of 4N sulfuric acid and the amount of substrate catalyzed determined by measuring the optical density (O.D.) at 492 nm. […] Samples were scored as positive for anti-PG antibodies if the measured O.D. was between 0.2 and 1.5. […]\nRelative affinity of exemplary monoclonal antibodies was measured using the ELISA method described above, in which wells were coated with a peptide solution containing 50 ng progastrin and then incubated in the presence of increasing concentrations of each monoclonal antibody as follows: […]"}, "[6]": {"biological_target": "T2, Immunogen N2 = SWKPRSQQPDAPLG Ahx Cys KLH (human)", "T2 construct": "hPG residues 1 to 14 with linker, coupled to the KLH carrier; also called KLH-linked N-terminal peptide", "T2 peptide": "SWKPRSQQPDAPLG[Ahx]C-{KLH}", "assay": "ELISA of hybridoma supernatants"}, "[7]": {"biological_target": "T1, Recombinant human progastrin", "assay": "competition ELISA: hPG captured by a C-terminal polyclonal antibody; MAb 3 titrated against 10 µg/ml biotinylated N-terminal anti-hPG polyclonal antibody; streptavidin-HRP, luminescence, n=2", "description": "The ability of an anti-hPG monoclonal antibody to compete with an anti-hPG polyclonal antibody for binding to progastrin was determined using an ELISA with a “capture” anti-hPG antibody and a “detection” anti-hPG antibody. Anti-hPG MAb 3 was assayed as follows: 96-well plates were pre-coated with C-terminal progastrin polyclonal antibodies raised against a peptide consisting of residues 71 to 80 of hPG. The plates were then incubated with […] progastrin was incubated, followed by addition of 10 μg/ml biotinylated N-terminal anti-hPG polyclonal antibody, raised against a peptide consisting of the amino acid sequence of SEQ ID NO:25, and increasing concentrations of anti-hPG MAb 3 monoclonal antibody. Binding of the biotinylated N-terminal anti-hPG polyclonal antibody was detected by incubating the plates with streptavidin-HRP followed by OPD, according to standard protocols. Binding was measured by quantifying luminescence."}, "[8]": {"biological_target": "T1, Recombinant human progastrin", "assay": "cell-based or functional assay", "remark": "listed apart in the source"}},
  "note": "“And” between values parts separate entries of the source, which are not always exact repeats. Equal values may be shown once. Non-standard residues stand in square brackets, D forms with d. No end group written: not given here. KLH = keyhole limpet hemocyanin; Ahx = NCCCCCC(=O)O",
  "data": [
    {"binder": "Anti-hPG MAb 13 (antibody, V domains shown, Mouse IgG1, hybridoma 2C6C3C7, raised against immunogen C1; also called 2C6C3C7) VH: EVQLVESGGGLVQPGGSLKLSCAASGFIFSSYGMSWVRQSPDRRLELVASINTFGDRTYYPDSVKGRFTISRDNAKNTLYLQMTSLKSEDTAIYYCARGTGTYWGQGTTLTVSS VL: not shown", "values": [
      {"measurement": "surviving SW 620 cells, % of control MAb-treated cells (cell numbers - T0)", "setting": "[1]", "result": "48 % of control"},
      {"measurement": "surviving LS 174T cells, % of control MAb-treated cells (cell numbers - T0)", "setting": "[2]", "result": "58 % of control"},
      {"measurement": "surviving HCT-116 cells, % of control MAb-treated cells (cell numbers - T0)", "setting": "[3]", "result": "36 % of control"},
      {"measurement": "Kd", "setting": "[4]", "result": "0.6 nM and 0.612 nM"}
    ]},
    {"binder": "Anti-hPG MAb 16 (antibody, V domains shown, Mouse IgG1, hybridoma 1E9D9B6, raised against immunogen N2; also called 1E9D9B6) VH: QVQLQQSGAELVKPGASVKLSCKASGYTFTSYYMYWVKQRPGQGLEWIGEINPSNGGTNFNEKFKSKATLTVDKSSSTAYMQLSSLTSEDSAVYYCTRGGYYPFDYWGQGTTLTVSS VL: not shown", "values": [
      {"measurement": "surviving SW 620 cells, % of control MAb-treated cells (cell numbers - T0)", "setting": "[1]", "result": "58 % of control"},
      {"measurement": "surviving LS 174T cells, % of control MAb-treated cells (cell numbers - T0)", "setting": "[2]", "result": "61 % of control"},
      {"measurement": "Kd", "setting": "[4]", "result": "0.2 nM and 0.278 nM"},
      {"measurement": "EC50 (read off the curve)", "setting": "[5]", "result": "~2", "unit": "ng/mL"}
    ]},
    {"binder": "Anti-hPG MAb 4 (antibody, V domains shown, Mouse IgG1, hybridoma 20D2C3G2, raised against immunogen N2; also called 20D2C3G2) VH: QVQLQQSGAELMKPGASVKISCKATGYTFSSSWIEWLKQRPGHGLEWIGEFLPGSGSTDYNEKFKGKATFTADTSSDTAYMLLSSLTSEDSAVYYCATDGNYDWFAYWGQGTLVTVSA VL: DLVMTQTPLSLPVSLGDQASISCRSSQSLVHSSGVTYLHWYLQKPGQSPKLLIYKVSNRFSGVPDRFSGSGSGTDFTLKISRVEAEDLGVYFCSQSTHVPPTFGSGTKLEIK", "values": [
      {"measurement": "binding result", "setting": "[6]", "result": "binds"},
      {"measurement": "Kd", "setting": "[4]", "result": 3.5, "unit": "nM"},
      {"measurement": "EC50 (read off the curve)", "setting": "[5]", "result": "~8", "unit": "ng/mL"}
    ]},
    {"binder": "Anti-hPG MAb 3 (antibody, V domains shown, Mouse IgG1, hybridoma 6B5B11C10, raised against immunogen N2; also called 6B5B11C10) VH: EVQLQQSGTVLARPGASVKMSCKASGYIFTSYWVHWVKQRPGQGLEWIGGFYPGNSDSRYNQKFKGKATLTAVTSASTAYMDLSSLTNEDSAVYFCTRRDSPQYWGQGTTLTVSS VL: DVLMTQTPLSLPVSLGDQASISCRSSQSIVHSNGNTYLEWYLQKPGQSPKLLIYKVSNRFSGVPDRFSGSGSGTDFTLKISRLEAEDLGVYYCFQGSHVPFTFGGGTKLEIK", "values": [
      {"measurement": "binding result", "setting": "[6]", "result": "binds"},
      {"measurement": "Kd", "setting": "[4]", "result": 6.4, "unit": "nM"},
      {"measurement": "IC50 (read off the curve)", "setting": "[7]", "result": "~4000", "unit": "ng/mL"}
    ]},
    {"binder": "Anti-hPG MAb 19 (antibody, V domains shown, Mouse IgG2, hybridoma 1B3B4F11, raised against immunogen N2; also called 1B3B4F11) VH: DVQLQESGPGLVKPSQSLSLTCTVTGYSITSDYAWNWIRQFPGNKLEWMGYISFSGYTSYNPSLKSRISVTRDTSRNQFFLQLTSVTTEDTATYYCAREVNYGDSYHFDYWGQGTIVTVSS VL: QLALTQSSSASFSLGASAKLTCTLSSQHRTYTIEWYQQQSLKPPKYVMEVKKDGSHSTGHGIPDRFSGSSSGADRYLSISNIQPEDEAIYICGVGDAIKGQSVFVFGGGTKVTVL", "values": [
      {"measurement": "surviving SW 620 cells, % of control MAb-treated cells (cell numbers - T0)", "setting": "[1]", "result": "69 % of control"},
      {"measurement": "surviving LS 174T cells, % of control MAb-treated cells (cell numbers - T0)", "setting": "[2]", "result": "84.5 % of control"},
      {"measurement": "surviving HCT-116 cells, % of control MAb-treated cells (cell numbers - T0)", "setting": "[3]", "result": "88 % of control"},
      {"measurement": "Kd", "setting": "[4]", "result": "0.7 nM and 0.779 nM"}
    ]},
    {"binder": "Anti-hPG MAb 8 (antibody, V domains shown, Mouse IgG1, hybridoma 1C10D3B9, raised against immunogen C1; also called 1C10D3B9) VH: EVQLVESGGGLVKPGGSLKLSCAASGFTFTTYAMSWVRQTPEKRLEWVATISSGGTYTYYPDSVKGRFTISRDNAKNALYLQMSSLRSEDTAMYYCATQGNYSLDFWGQGTSLTVSS VL: DIVMTQAASSNPVTLGTSASISCRSSKSLRHTKGITFLYWYLQKPGQSPQLLIYQMSNLASGVPDRFSSSGSGTDFTLRISRVEAEDLGVYYCAQNLELPLTFGAGTKLELK", "values": [
      {"measurement": "surviving SW 620 cells, % of control MAb-treated cells (cell numbers - T0)", "setting": "[1]", "result": "40 % of control"},
      {"measurement": "surviving LS 174T cells, % of control MAb-treated cells (cell numbers - T0)", "setting": "[2]", "result": "42 % of control"},
      {"measurement": "surviving HCT-116 cells, % of control MAb-treated cells (cell numbers - T0)", "setting": "[3]", "result": "62 % of control"},
      {"measurement": "viable LS174T cells (CellTiter 96 absorbance at 490 nm), % of control MAb; anti-hPG MAb 8 pre-incubated with 20-fold molar excess hPG", "setting": "[8]", "result": "148 % of control"},
      {"measurement": "Kd", "setting": "[4]", "result": "0.1 nM and 0.108 nM"}
    ]}
  ]
}
